The data set in a line: yeast display, Sf9 membrane polyspecificity reagent, FACS + sequencing; frameworks hold sequencing errors. In short, it runs like this: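 Polyreactivity labels are assigned by the sorting gate from which each nanobody was recovered. The gates were low and high (top ~1%), set on anti-HA fluorescence for expression and streptavidin fluorescence for reagent binding. Before sorting, galactose-induced (36–48 hours) yeast display cells were stained for 1 hour at 4 °C with 10% biotinylated, detergent-solubilized Sf9 membrane reagent.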
Regarding “QVQLVESGGGLVQAGGSLRLSCAASGRIFRWYAMGWNRQAPGQERELVAAITRGDITNYADSVKGRFTISRDNAKNTVYLQMNSLKPEDTAVYYCNAQWYDIYDYWGQGSQVTVSS”, the “polyreactivity (PSR sort gate)” value is “high polyreactivity”.
To “QVQLVESGGGLVQAGGSLRLSCAASGRIFRWYAMGWYRQAPGKEREIVAAITSSGGSTYYADSVKGRFTISRDNAKNTVYLQMNSLKPEDTAFYYCAALLYLGGSYSRGYYWGQGTQVTVSS” belongs “high polyreactivity”; to “QVQLVESGGGLVQAGGSLRLSCAASGRIFRWYAMGWYRQAPGKERELVAAISYSGGSTYYADSVKGRFTISRDNAKNTVYLQMNRLKPEDTAVYYCNAVLYTPVYDGFDSWGQGTQVTVSS”, “high polyreactivity”.
In the case of “QVQLVESGGGLVQAGGSLRLSCAASGRIFRWYAMGWYRQAPGKERELVATISSTGGSTYYADSVKGRFTISRDNAKNTVYLQMNSLKPEDTAVYYCAVDPRGHEGVRYNYWGQGTQVTVSS”, the “polyreactivity (PSR sort gate)” value is listed as “low polyreactivity”.
Take “QVQLVESGGGLVQAGGSLRLSCAASGRIFRYKAMGWYRQAPGKERELVAAISGSGGSTYYADSVKGRFTISRDNAKNTVYLQMNSLKPEDTAVYYCNALYWIFNHGGYDYWGQGTQVTVSS”: the “polyreactivity (PSR sort gate)” value is on record as “low polyreactivity”.
To “QVQLVESGGGLVQAGGSLRLSCAASGRIFRYNAMGLYRQAPGKERELVAAISRGGSSTYYADSVKGRFTISRDNAKNTVYLQMNSLKPEDTAVYYCNARSVVREFNYWGQGTQVTVSS” belongs “high polyreactivity”; to “QVQLVESGGGLVQAGGSLRLSCAASGRIFRYNAMGWYRQAPGKERELVAAISFSTTSPYYADSVKGRFTISRDNAKNTVYLQMNSLKPEDTAVYNCNTPGLPIDSEYDYWGQGTQVTVSS”, “low polyreactivity”.
To “QVQLVESGGGLVQAGGSLRLSCAASGRIFRYNAMGWYRQAPGKERELVAAISTSGTRTFYADSVKGRFTISRDNAMKTVYLQMNSVKPEDTAVYYCNKVAGPGKLGPYYYWGQGTQVTVSS” belongs “high polyreactivity”; to “QVQLVESGGGLVQAGGSLRLSCAASGRIFRYNAMGWYRQAPGKERELVAAITNGGSTNYADSVKGRFTISRDNAKNTVYLQMNSLKPEDTAVYYCNAQGRRYSQRYYYWGQGTQVTVSS”, “high polyreactivity”.
To “QVQLVESGGGLVQAGGSLRLSCAASGRIFRYNAMGWYRQAPGKERELVASITSAGSTIYADSVKGRFTISRDNAKNTVYLQMNSLKPEDTAVYYCNKRRAYGYYLFDYWGQGTQVTVSS” belongs “high polyreactivity”; to “QVQLVESGGGLVQAGGSLRLSCAASGRIFRYNAMGWYRQAPGKERELVATISRGGGSTYYADSVKGRFTISLDNAKNTVYLQMNSLKPEDTAVYYCATRYYQDIVGYSRYDYWGQGTQVTVSS”, “high polyreactivity”.
For “QVQLVESGGGLVQAGGSLRLSCAASGRIFRYNTMGWYRQAHGKERELVAAIDRGSSTNYADSVKGRFTISRDNAKNTVYLQMNSLKPEDTAVYYCAARVFRPYGSLYDYWGQGTQVTVSS”, the “polyreactivity (PSR sort gate)” value is on record as “high polyreactivity”.
Next, “QVQLVESGGGLVQAGGSLRLSCAASGRIFRYYAKGWYRQATGKERELVAAISWSGGSTYYADSVKGRFTISRDNAKNTVYLQMHSLKPEDTAVYYCNAAVTQFTHRWRRRITFDYWGQGTQVTVSS”: “high polyreactivity”; “QVQLVESGGGLVQAGGSLRLSCAASGRIFRYYAMGWYRPAPGKERELVAAITRSGGITYYADSVKGRFTISRDNAKNTVYLQLNSLKPEDTAVYYCAVRGAGWPSVRAFGYDYWGQGTQVTVSS”: “high polyreactivity”.
As for “QVQLVESGGGLVQAGGSLRLSCAASGRIFRYYAMGWYRQAPGKEREFVAGISWRGSSTYYADSVKGRFTISRDNAKNTVYLQMNSLKPEDTAVYYCNRDQSNIPVTGGRFYYWGQGTQVTVSS”, the “polyreactivity (PSR sort gate)” value is “high polyreactivity”.
Regarding “QVQLVESGGGLVQAGGSLRLSCAASGRIFRYYAMGWYRQAPGKERELVAAINSGGSTKYADSVKGRFTISRDNAKNTVYLQMNSLKPEDTAVYYCAAVYTPDSRYDYWGQGTQVTVSS”, the “polyreactivity (PSR sort gate)” value was “high polyreactivity”.
Next, “QVQLVESGGGLVQAGGSLRLSCAASGRIFRYYAMGWYRQAPGKERELVAAISDSSGSTYYADSVKGRFTISRDNAKNTVYLQMNSLKPEDTAVYYCRYYFGSGFYYWGQGTQVTVSS”: “high polyreactivity”.
For “QVQLVESGGGLVQAGGSLRLSCAASGRIFRYYAMGWYRQAPGKERELVAAISRGGSTNYADSVKGRFTISRDNAKNTVYLQMNSLKPEDTAVYYCAAVYHSRVWYGYDSKFEYWGQGTQVTVSS”, the “polyreactivity (PSR sort gate)” value was “high polyreactivity”.
To “QVQLVESGGGLVQAGGSLRLSCAASGRIFRYYAMGWYRQAPGKERELVAAISSRGGSTYYADSVKGRFTISRDNAKNSVYLQMNSLKPEDTAVYFCDKAVFYGPSERNYGLDYWGQGTQVTVSS” belongs “high polyreactivity”; to “QVQLVESGGGLVQAGGSLRLSCAASGRIFRYYAMGWYRQAPGKERELVAAITRGGSTNYADSVKGRFTISRDNAKNTVYLQMNSLKPEDTAVYYCAVRGGYTWPTYNYWGQGTQVTVSS”, “high polyreactivity”.
Next, “QVQLVESGGGLVQAGGSLRLSCAASGRIFRYYAMGWYRQAPGKERELVASISSGGSTNYADSVKGRFTISRDNAKNTVYLQMNSLKPEDTAVYYCATVRRSTGGRLYYWGQGTQVTVSS”: “high polyreactivity”.
Next, “QVQLVESGGGLVQAGGSLRLSCAASGRIFRYYAMGWYRQAPGKERELVASITYSGGRTNYADSVKGRFTISRDNAKNTVYLQMNSLKPEDTAVYYCNSAYVYYYPHYRYAPTAVDYDYWGQGTQVTVSS”: “low polyreactivity”.
Take “QVQLVESGGGLVQAGGSLRLSCAASGRIFRYYAMGWYRQAPGKERELVATISSSGGSTYYADSVKGRFTISRDNAKNTVYLQMKSLKPEDTAVYYCAADWYGYRQFHGYYWGQGTQVTVSS”: the “polyreactivity (PSR sort gate)” value is listed as “high polyreactivity”.
To “QVQLVESGGGLVQAGGSLRLSCAASGRIFRYYAMGWYRQAPGKERELVAVISSSGGSTNYADSVKGRFTISRDNAKNTVYLQMNSLKPEDTAVYYCNAYGAYGGTGDYWGQGTQVTVSS” belongs “high polyreactivity”; to “QVQLVESGGGLVQAGGSLRLSCAASGRIFRYYAMGWYRQSPGKEREFVAAINWSGGSTYYADSVKGRITISRDNAKNTVYLQMNSLKREDTAVYYCAALITQSYDYWGQGSQVTVSS”, “high polyreactivity”; to “QVQLVESGGGLVQAGGSLRLSCAASGRIFRYYDMGWYRPAPGKERELVAAINSGGSTKYADSVKGRFTISRDNAKNTVYLQMNSLKPEDTAVYYCAADKARAWGYDYWGQGTQVTVSS”, “high polyreactivity”.
With “QVQLVESGGGLVQAGGSLRLSCAASGRIFRYYDMGWYRQAPGKEREFVAAITRSGAITYYADSVKGRFTISRDNAKNTVYLQMNSLKPEDTAVYYCAARYWSKFGYWGQGTQVTVSS”, the “polyreactivity (PSR sort gate)” value is on record as “low polyreactivity”.
“QVQLVESGGGLVQAGGSLRLSCAASGRIFRYYTMGWYRPAPGKERELVAAISWTGASTYYADSVKGRFTISRDNAKNTVYLQMNSLKPEDTAVYYCAADSYIAHHGFAMDYWGQGTQVTVSS”: the “polyreactivity (PSR sort gate)” value is given as “low polyreactivity”.
For “QVQLVESGGGLVQAGGSLRLSCAASGRIFRYYVMGWYRQAPGKEREFVASISGRGASTYYADSVKGRFTISRDNAKNTVYLQMNSLKPEDTAVYYCNADVWLLSYFPEYDYWGQGTQVTVSS”, the “polyreactivity (PSR sort gate)” value is “low polyreactivity”.
On to “QVQLVESGGGLVQAGGSLRLSCAASGRIFRYYVMGWYRQAPGKERELVAAISRSGGTTYYADSVKGRFTISRDNAKNTVYLQMNSLKPEDTAVYYCAAVYGRDPGDYWGQGTQVTVSS”, for which the “polyreactivity (PSR sort gate)” value is listed as “high polyreactivity”.
With “QVQLVESGGGLVQAGGSLRLSCAASGRIFRYYVMGWYRQAPGKERELVASITRVGRTNYADSVKGRFTISRDNAKNTVYLQMNSLKPEDTAFYYCAADVWWSTYRVTDDYWGQGTQVTVSS”, the “polyreactivity (PSR sort gate)” value is listed as “high polyreactivity”.
In the case of “QVQLVESGGGLVQAGGSLRLSCAASGRIFSAYTMGWYRQAPGKERELVAAITWSGGTTYYADSVKGRFTISRDNAKNTVYLQINSLKPEDTAVYYCAAESSWYVLYGSYYRSGLEYWGQGTLVTVSS”, the “polyreactivity (PSR sort gate)” value is listed as “low polyreactivity”.
To “QVQLVESGGGLVQAGGSLRLSCAASGRIFSEYAMGWYRQAPGKERELVASISTSGGSTYYADSVKGRFTISRDNAKNTVYLQMNSLKPEDTAVYYCNVAYSRYPSYTYGYDHWGQGTQVTVSS” belongs “high polyreactivity”; to “QVQLVESGGGLVQAGGSLRLSCAASGRIFSFNAMGCYRQATGKERELVAAISWSTGSTFYADSVKGRFTISRDYAKNTVFLQMNSLKPEDTAVYYCAREYYYRRGFFLRGYWGQGTQVTVSS”, “high polyreactivity”.
Next, “QVQLVESGGGLVQAGGSLRLSCAASGRIFSFNGMGWYRQAPGKERELVAAITSSGGRTYYADSVKGRFTISRDNAKNTVYLQMNSLKPEDTAVYYCAAELAWEYYWGQGTQVTVSS”: “low polyreactivity”; “QVQLVESGGGLVQAGGSLRLSCAASGRIFSFYAMGWYRQAPGKERELVATISDGGATTYYADSVKGRFTISRDNAKNTVYLQMNSLKPEDTAVYYCAADKRGRPGLPDYDSWGQGTQVTVSS”: “low polyreactivity”; “QVQLVESGGGLVQAGGSLRLSCAASGRIFSGNAMGWYRQAPGKERELVAAISGSGGSTYYADSVKGRFTISRDNAKNTVYLQMNSLKPEDTAVYYCADRYTVRRSGYWGQGTQVTVSS”: “high polyreactivity”.
Regarding “QVQLVESGGGLVQAGGSLRLSCAASGRIFSGNAMGWYRQAPGKERELVAAISRGGSTDYADSVKGRFTISRDNAKNTVYLQMNSLKPEDTAVYYCAARVNGKRRRYDYWGQGTQVTVSS”, the “polyreactivity (PSR sort gate)” value is on record as “high polyreactivity”.
To “QVQLVESGGGLVQAGGSLRLSCAASGRIFSGYAMGWYRKAPGKERELVAAINRGGDTNYADSVKGRFTISRDNAKNTVYLQMNSLKPEDTAVYYCAAQYSGRYRRVPKSYPDRGDYWGQGTQVTVSS” belongs “low polyreactivity”; to “QVQLVESGGGLVQAGGSLRLSCAASGRIFSGYAMGWYRQAPGKERELVAAITSGGSTNYADSVKGRFTISRDNAKNTVYLQMNSLKPVDTAVYYCAKYYFQYKHDYWGQGTQVTVTS”, “low polyreactivity”; to “QVQLVESGGGLVQAGGSLRLSCAASGRIFSGYAMGWYRQAPGKERELVAAITWNGVSTYYADSVKGRFTISRDNAKNTVYLQMNSLKPEDTAVYYCNAEVYSDPYNDHDYWGQGTQVTVSS”, “low polyreactivity”.

(Values after the nanobody polyreactivity screen of Harvey et al. (2022).)
